Patent US20250163167A1 (SYNTHEKINE, published 2025)

Legend:
[1] = molecular target: T1, mIL10Rb ECD antigen (mouse, UniProt Q61190 20-220); test: periplasmic extract ELISA (PE-ELISA) of phage clones
T1 construct: Antigen of biopanning and PE-ELISA; also called extracellular domain of mIL10Rb
T1 sequence: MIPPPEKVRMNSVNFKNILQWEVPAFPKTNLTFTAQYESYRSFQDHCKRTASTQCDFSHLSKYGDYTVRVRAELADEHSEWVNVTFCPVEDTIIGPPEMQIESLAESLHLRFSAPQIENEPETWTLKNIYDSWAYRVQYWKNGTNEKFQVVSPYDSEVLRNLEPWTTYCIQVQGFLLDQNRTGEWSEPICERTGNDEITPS

[2] = molecular target: T2, hIL10Ra-his (Sino Biological, Catalog#10419) (human, UniProt Q13651 22-235); test: SPR; ratio of experimental to calculated Rmax
T2 construct: Bought; also called Sino Biological cat#10419-H08H; not shown: C-terminal poly-His tag
T2 sequence: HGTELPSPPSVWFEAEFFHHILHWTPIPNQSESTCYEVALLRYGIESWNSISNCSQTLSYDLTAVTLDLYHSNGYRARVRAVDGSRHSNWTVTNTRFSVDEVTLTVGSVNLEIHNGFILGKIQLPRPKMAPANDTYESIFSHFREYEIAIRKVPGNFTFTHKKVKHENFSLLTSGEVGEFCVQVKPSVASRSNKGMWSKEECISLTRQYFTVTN
Description: (§1) To confirm and evaluate binding affinities of the binding of the IL10Ra sdAbs, a representative example from each clonotype generated was selected for evaluation of binding via SPR. […] Buffer-subtracted sensograms were processed with Biacore T200 Evaluation Software and globally fit with a 1:1 Langmuir binding model (bulk shift set to zero) to extract kinetics and affinity constants (kₐ, kd, KD). RMAX<100 RU indicates surface density compatible with kinetics analysis. Calculated Rₘₐₓ values were generated using the equation: Rₘₐₓ=Load (RU)×valency of ligand×(Molecular weight of analyte/Molecular weight of ligand). Surface activity was defined as the ratio of experimental/calculated Rmax.
(§2) One representative example from each clonotype of IL10a generated in accordance with Examples 1-3 was selected for evaluation of binding via SPR as follows. […] All experiments were conducted in 10 mM Hepes, 150 mM NaCl, 0.05% (v/v) Polysorbate 20 (PS20) and 3 mM EDTA (HBS-EP+ buffer) on a Biacore T200 instrument equipped with a Protein A derivatized sensor chip (Cytiva). Mono-Fc VHH ligands were flowed at 5 μl/min for variable time ranging from 18 to 300 seconds, reaching the capture loads listed in the tables below. Following ligand capture, injections of a 2-fold dilution series of the extracellular domain of the IL2Rb-receptor modified to incorporate a C-terminal poly-His sequence, typically comprising at least five concentrations between 1 μM and 1 nM, were performed in either high performance or single cycle kinetics mode. Surface regeneration was achieved by flowing 10 mM glycine-HCl, pH 1.5 (60 seconds, 50 μL/min).

[3] = molecular target: T2, hIL10Ra-his (Sino Biological, …); test: SPR Biacore T200; mono-Fc VHH captured on Protein A chip, hIL10Ra-his analyte; 1:1 Langmuir fit
Description: as §1
as §2, with “[…],” for “injections of a 2-fold dilution series of the extracellular domain of the IL2Rb-receptor modified to incorporate a C-terminal poly-His sequence,”

[4] = molecular target: T3, hIL10Ra ECD antigen (human, UniProt Q13651 22-235); test: periplasmic extract ELISA (PE-ELISA) of phage clones
T3 construct: also called ECD of IL10Ra; extracellular domain of hIL10Ra
T3 sequence: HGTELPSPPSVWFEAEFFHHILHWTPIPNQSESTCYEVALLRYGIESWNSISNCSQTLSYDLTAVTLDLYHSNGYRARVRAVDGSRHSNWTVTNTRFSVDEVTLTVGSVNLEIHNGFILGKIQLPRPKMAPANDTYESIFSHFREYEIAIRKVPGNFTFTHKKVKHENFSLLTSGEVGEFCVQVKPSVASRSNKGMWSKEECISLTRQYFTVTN

[5] = molecular target: T4, hIL10Rb ECD antigen (human, UniProt Q08334 20-220); test: as above
T4 construct: Antigen of biopanning and PE-ELISA; also called extracellular domain of hIL10Rb
T4 sequence: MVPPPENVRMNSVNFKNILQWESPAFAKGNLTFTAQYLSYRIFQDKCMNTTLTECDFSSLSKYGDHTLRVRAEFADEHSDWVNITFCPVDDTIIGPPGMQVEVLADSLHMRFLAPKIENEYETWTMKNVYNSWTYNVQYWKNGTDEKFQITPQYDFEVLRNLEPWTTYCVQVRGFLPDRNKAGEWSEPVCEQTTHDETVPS

B1: DR1323 (anti mouse mIL10Rb VHH) (VHH)
VHH: QVQLQESGGGSVQAGGSLRLSCVASGDTYSRKYIAWVRQVPGKEREGVAVMYTPGSATYYTDTVMGRFTISQDNAKNTVYLQMNSLKPEDTAMYFCAAKASGSMFNFRDYTYWGQGTQVTVSS
notes: Phage clone, periplasmic extract
binding result [1]: binds

B2: hIL-10Ra_VHH6 Mono-Fc (Fc fusion)
chain: QVQLQESGGGSVQAGGSLRLSCAASRFTYSSYCMGWFRQAPGKEREGVASIDSDGSTSYTDSVKGRFTISKDNAKNTLYLQMNSLKPEDTAMYYCALDLMSTVVPGFCGFLLSAGMDYWGKGTQVTVSS
notes: Mono-Fc VHH captured on Protein A; not shown: mono-Fc part
Surface Activity [2]: 83% | Kd [3]: 1.8 nM | koff [3]: 0.00019 s⁻¹ | kon [3]: 106000 M⁻¹ s⁻¹

B3: hIL-10Ra_VHH8 Mono-Fc (Fc fusion)
chain: QVQLQESGGGSVQAGGSLRLSCAASGYTYSMYCMGWFRQAPGKEREGVAQINSDGSTSYADSVKGRFTISKDNAKNTLYLQMNSLKPEDTAMYYCAADSRVYGGSWYERLCGPYTYEYNYWGQGTQVTVSS
notes: as for B2
Surface Activity [2]: 57% | Kd [3]: 6.4 nM | koff [3]: 0.00107 s⁻¹ | kon [3]: 168000 M⁻¹ s⁻¹

B4: DR1322 (anti mouse mIL10Rb VHH) (VHH)
VHH: QVQLQESGGGSVQAGGALRLSCTASGYTASSICMGWFRQAPGKERERVAVITTAASGTYYADSVNGRFSISQNNAKNTVYLQMNSLKPDDTAMYYCAATRRGGDCLDPLQTPAYNTWGQGTQVTVSS
notes: as for B1
binding result [1]: binds

B5: hIL-10Ra_VHH17 Mono-Fc (Fc fusion)
chain: QVQLQESGGGSVQAGGSLRLSCAASGYSNCSYDMTWYRQAPGKEREFVSAIHSDGSTRYADSVKGRFFISQDNAKNTVYLQMNSLKPEDTAMYYCKTDPLHCRAHGGSWYSVRANYWGQGTQVTVSS
notes: as for B2
Surface Activity [2]: 35% | Kd [3]: 6 nM | koff [3]: 0.00197 s⁻¹ | kon [3]: 327000 M⁻¹ s⁻¹

B6: hIL10Ra VHH11 (VHH)
VHH: QVQLQESGGGSVQAGGSLRLSCGASRYTYSSYCMGWFRQAPGKEREGVAVIDSDGSTSYADSVKGRFTISKDNGKNTLYLQMNSLKPEDTAMYYCAADLGHYRPPCGVLYLGMDYWGKGTQVTVSS
notes: as for B1
binding result [4]: binds

B7: hIL-10Ra_VHH14 Mono-Fc (Fc fusion)
chain: QVQLQESGGGSVQAGGSLRLSCGASGYTYSSYCMGWFRQVPGKEREGVAVIDSDGSTSYADSVKGRFTISKDNGKNTLYLQMNSLKPEDTAMYYCAADLGHYRPPCGVLYLGMDYWGKGTQVTVSS
notes: as for B2
Surface Activity [2]: 51% | Kd [3]: 1.4 nM | koff [3]: 0.000136 s⁻¹ | kon [3]: 98400 M⁻¹ s⁻¹

B8: hIL10Ra VHH16 (VHH)
VHH: QVQLQESGGGSVQAGGSLRLACAASRYTYSNYCMGWFRQAPGKEREGVATIDSDGNTSYADSVKGRFTISRDNAKNTLYLQMNSLKPGDTAMYYCAADLGHYRPPCGAYYYGMDYWGKGTQVTVSS
notes: as for B1
binding result [4]: binds

B9: hIL10Ra VHH15 (VHH)
VHH: QVQLQESGGGSVQAGGSLRLSCGASGYTYSGYCMGWFRQAPGKEREGVAVIDSDGSTSYADSVKGRFTISKDNGKNTLYLQMNSLKPEDTAMYYCAADLGHYRPPCGVLYLGMDYWGKGTQVTVSS
notes: as for B1
binding result [4]: binds

B10: hIL10Ra VHH2 (VHH)
VHH: QVQLQESGGGSVQAGGSLRLSCVASRYLYSTNYMAWFRQSPGKEREAVAVIYTASGATLYTDSVKGRFTISQDNAKMTVYLQMNRLKSEDTAMYYCAAVRKTDSYLFDAQSFTYWGQGTQVTVSS
notes: as for B1
binding result [4]: binds

B11: hIL-10Ra_VHH10 Mono-Fc (Fc fusion)
chain: QVQLQESGGGSVQAGGSLRLSCAASRYLYSIDYMAWFRQSPGKEREPVAVIYTASGATFYPDSVKGRFTISQDNAKMTVYLQMNSLKSEDTAMYYCAAVRKTDSYLFDAQSFTYWGQGTQVTVSS
notes: as for B2
Surface Activity [2]: 57% | Kd [3]: 13.4 nM | koff [3]: 0.00139 s⁻¹ | kon [3]: 104000 M⁻¹ s⁻¹

B12: hIL10Ra VHH4 (VHH)
VHH: QVQLQESGGGSIQAGGSLRLSCAASRYLYSIDYMAWFRQSPGKEREPAAVIYTASGATFYPDSVKGRFTISQDNAKMTVYLQMNSLKSEDTAMYYCAAVRKTDSYLFDAQSFTYWGQGTQVTVSS
notes: as for B1
binding result [4]: binds

B13: hIL10Ra VHH5 (VHH)
VHH: QVQLQESGGGSIQAGGSLRLSCVASKYLYSTNYMAWFRQSPGKEREAVAAIYTASGATLYSDSNKGRFTISQDNAKMTVYLQMNSLKSEDTAMYYCAAVRKTGSYLFDAQSFTYWGQGTQVTVSS
notes: as for B1
binding result [4]: binds

B14: hIL10Ra VHH3 (VHH)
VHH: QVQLQESGGGSIQAGGSLRLSCVASRYLYSTNYMAWFRQSPGKEREAVAVIYTASGATLYTDSVKGRFTISQDNAKMTVYLQMNRLKSEDTAMYYCAAVRKTDSYLFDAQSFTYWGQGTQVTVSS
notes: as for B1
binding result [4]: binds

B15: hIL10Ra VHH18 (VHH)
VHH: QVQLQESGGGSVQAGGSLRLSCAVSGYTYNSNCMGWFRQAPGKEREGVATIYTGVGSTYYADSVKGRFTISQDNAKNTVYLQMNSLKPEDTAMYYCAAEPLSRVYGGSCPTPTFGYWGQGTQVTVSS
notes: as for B1
binding result [4]: binds

B16: hIL-10Ra_VHH12 Mono-Fc (Fc fusion)
chain: QVQLQESGGGSVQAGGSLRLSCTVSGYTYSSNCMGWFRQAPGKEREGVATIYTGGGNTYYADSVKGRFTISQDNAKNTVYLQMNNLKPEDTAMYYCAAEPLSRVYGGSCPTPTFDYWGQGTQVTVSS
notes: as for B2
Surface Activity [2]: 73% | Kd [3]: 7.7 nM | koff [3]: 0.00119 s⁻¹ | kon [3]: 154000 M⁻¹ s⁻¹

B17: hIL10Ra VHH13 (VHH)
VHH: QVQLQESGGGSVQAGGSLRLSCAVSGYSYSSNCMGWFRQAPGKEREGVATIHTGGGSTYYADSVKGRFTISQDNAKNTVYLQMNSLKPEDTAMYYCAAEPLSRLYGGSCPTPTFGYWGQGTQVTVSS
notes: as for B1
binding result [4]: binds

B18: hIL10Ra VHH7 (VHH)
VHH: QVQLQESGGGSVQAGGSLRLSCAVSGYTFNSNCMGWFRQAPGKEREGVATIYTGVGSTYYADSVKGRFTISQDNAKNTVYLQMNSLKPEDTAMYYCAAEPLSRVYGGSCPTPTFGYWGQGTQVTVSS
notes: as for B1
binding result [4]: binds

B19: hIL10Rb VHH-17 (VHH)
VHH: QVQLQESGGGSVQAGGSLRLSCTVSRYTASVNYMGWFRQAPGKEREGVATIFTGAGTTYYANSVKGRFTISRDNAKNTAYLQMNSLKPEDTAMYYCAVDFRGGLLYRPAYEYTYRGQGTQVTVSS
notes: as for B1
binding result [5]: binds

B20: hIL-10Ra_VHH9 Mono-Fc (Fc fusion)
chain: QVQLQESGGGSVQAGGSLRLSCAVSGYAYSTYCMGWFRQAPGKEREGVAAIDSGGSTSYADSVKGRFTISKDNAKNTLYLRMNSLKPEDTAMYYCAAVPPPPDGGSCLFLGPEIKVSKADFRYWGQGTQVTVSS
notes: as for B2
Surface Activity [2]: 66% | Kd [3]: 11.6 nM | koff [3]: 0.00115 s⁻¹ | kon [3]: 99700 M⁻¹ s⁻¹
